Experimental data taken from PMC7262672.
Where two headings read alike, the source gives them in different places.

Legend:
[1] = molecular target: E. coli scaffold protein IscU (Escherichia coli) (UniProt P0ACD4); assay: native MS
[2] = molecular target: E. coli cysteine desulfurase IscS (Escherichia coli) (UniProt P0A6B7); assay: native MS
[3] = molecular target: E. coli scaffold protein IscU (Escherichia coli) (UniProt P0ACD4); assay: non-reducing SDS-PAGE with densitometry
[4] = molecular target: E. coli scaffold protein IscU (Escherichia coli) (UniProt P0ACD4); assay: native MS; remark: listed apart in the source

UniProt P0A6B7, sequence (P0A6B7 whole entry): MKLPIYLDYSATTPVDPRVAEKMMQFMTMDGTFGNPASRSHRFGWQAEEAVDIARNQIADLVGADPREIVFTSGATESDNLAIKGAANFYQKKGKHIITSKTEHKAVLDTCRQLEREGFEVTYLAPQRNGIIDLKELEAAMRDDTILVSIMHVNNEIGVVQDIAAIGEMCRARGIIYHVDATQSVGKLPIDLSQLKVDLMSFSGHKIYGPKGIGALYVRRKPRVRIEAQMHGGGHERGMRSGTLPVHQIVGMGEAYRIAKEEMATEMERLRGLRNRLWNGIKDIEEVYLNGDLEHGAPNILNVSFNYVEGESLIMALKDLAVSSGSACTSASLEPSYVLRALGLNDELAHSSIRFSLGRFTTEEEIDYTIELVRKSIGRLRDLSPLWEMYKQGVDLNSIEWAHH

Substance: E. coli scaffold protein IscU (from UniProt P0ACD4 1-128) (natural protein)
- percent dimer [1]: 59%
- percent dimer (of the monomer-to-dimer ratio) [1]: 22%
- stoichiometry N [1]: 2
- fraction of IscS2 lacking IscU [2]: 11%
- fraction of the IscU2–IscS2 complex [2]: 94%
- fraction of the IscU2–IscS2 species [2]: 86%
- fraction of the IscU-IscS2 complex [2]: 47%
- fraction of the IscU-IscS2 species [2]: 6%
- stoichiometry N (IscU per IscS dimer) [2]: 2
- percent dimer [3]: 65%
- percent dimer (of the monomer-to-dimer ratio) [4]: 14%
